Laboratory results as given in patent US20180355059A1 (PHARMAEXPLORER, published 2018).
Each block holds one binder with its values, some of them ahead of it.

Legend:
[1] = target: T1, recombinant human PCSK9-His protein (Immunogen A) (human, UniProt Q8NBP7 31-692, limits assumed, biotinylated in the ELISA assays); test: ELISA; antibody 0 nM
T1 construct: also called hPCSK9-His; His-tagged hPCSK9; not shown: His tag

[2] = target: T2, recombinant cyno monkey PCSK9 protein (cyno monkey, UniProt A8T666 31-692 (rhesus entry), limits assumed, biotinylated in the ELISA assays); test: ELISA; antibody 0 nM
T2 construct: also called cyno PCSK9; Cyno Monkey PCSK9-His

[3] = target: T1, recombinant human PCSK9-His protein …; test: ELISA; antibody 0.67 nM
[4] = target: T1, recombinant human PCSK9-His protein …; test: ELISA; antibody 6.67 nM
[5] = target: T2, recombinant cyno monkey PCSK9 protein; test: ELISA; antibody 0.67 nM
[6] = target: T2, recombinant cyno monkey PCSK9 protein; test: ELISA; antibody 6.67 nM
[7] = target: T1, recombinant human PCSK9-His protein …; test: ELISA; antibody 0.067 nM
[8] = target: T1, recombinant human PCSK9-His protein …; test: ELISA; antibody 66.67 nM
[9] = target: T2, recombinant cyno monkey PCSK9 protein; test: ELISA; antibody 0.067 nM
[10] = target: T2, recombinant cyno monkey PCSK9 protein; test: ELISA; antibody 66.67 nM
[11] = target: T1, recombinant human PCSK9-His protein …; test: ELISA; antibody 0.0067 nM
[12] = target: T2, recombinant cyno monkey PCSK9 protein; test: ELISA; antibody 0.0067 nM
[13] = target: T1, recombinant human PCSK9-His protein …; test: ELISA; antibody 0.00067 nM
[14] = target: T2, recombinant cyno monkey PCSK9 protein; test: ELISA; antibody 0.00067 nM
[15] = target: T1, recombinant human PCSK9-His protein …; test: ELISA; antibody 0.000067 nM
[16] = target: T2, recombinant cyno monkey PCSK9 protein; test: ELISA; antibody 0.000067 nM
[17] = target: T1, recombinant human PCSK9-His protein …; test: BLI, Octet Red 96; antibody on AHC sensor
Description: Dissociation constants were determined by Octed red 96 (Fortiebio). The detailed operation and methods were followed according to the specifications of the instrument provided by the manufacturer. Briefly, an AHC sensor (Anti-human Fc sensor, Fortiebio) was used for the affinity determination. The anti-PCSK9 antibody was diluted to 10 ug/mL in PBS buffer (pH7.4) containing 0.1% (w/w) BSA and 0.02% (v/v) Tween 20 and incubated with the AHC sensor. […] The reaction mixture was further incubated in PBS buffer (pH7.4) containing 0.1% (v/w) BSA and 0.02% (v/v) Tween 20 at 30° C. for 5 minutes.

[18] = target: T1, recombinant human PCSK9-His protein …; test: ELISA of PCSK9 binding to LDLR ECD; antibody 0 nM
[19] = target: T1, recombinant human PCSK9-His protein …; test: ELISA of PCSK9 binding to LDLR ECD; antibody 40 nM
[20] = target: T1, recombinant human PCSK9-His protein …; test: ELISA of PCSK9 binding to LDLR ECD; antibody 1.6 nM
[21] = target: T1, recombinant human PCSK9-His protein …; test: ELISA of PCSK9 binding to LDLR ECD; antibody 200 nM
[22] = target: T1, recombinant human PCSK9-His protein …; test: ELISA of PCSK9 binding to LDLR ECD; antibody 0.01 nM
[23] = target: T1, recombinant human PCSK9-His protein …; test: ELISA of PCSK9 binding to LDLR ECD; antibody 0.06 nM
[24] = target: T1, recombinant human PCSK9-His protein …; test: ELISA of PCSK9 binding to LDLR ECD; antibody 0.32 nM
[25] = target: T1, recombinant human PCSK9-His protein …; test: SPR, Biacore T200; antibody captured by anti-human Fc
Description: Anti-human Fc IgG was immobilized on flow cells 1 and 2: HBS-EP+(10 mM HEPES, 150 mM NaCl, 3 mM EDTA, 0.05% P20, pH 7.4) was used as running buffer, and the immobilization of anti-human Fc IgG was carried out using the immobilization wizard template. Flow cells 1 and 2 of a Series S CM5 sensor chip were activated with freshly-mixed 50 mmol/L NHS and 200 mmol/L EDC. 20 ug/mL of anti-human Fc IgG diluted in 10 mM NaAC (pH 4.5) was injected into the activated flow cells 1 and 2. The remaining active coupling sites were blocked with 1M ethanolamine.
KD measurements were carried out with HBS-EP+ as the running buffer. Each antibody was injected over the CM5 sensor flow cell 2 with a flow rate of 10 uL/min to reach response 230 RU. […] Buffer flow was maintained for 400 seconds for dissociation measurements (30 uL/min). To remove the tested antibody from the surface, 10 mM glycine-HCl pH 1.5 was injected for 20 seconds (30 ulJmin). Flow cell 1 was used as reference flow cell. […] The KD value for each antibody was evaluated using Biacore T200 evaluation software 1.0, and the data was fit with a 1:1 binding model.

T2 sequence (A8T666 31-692 limits assumed): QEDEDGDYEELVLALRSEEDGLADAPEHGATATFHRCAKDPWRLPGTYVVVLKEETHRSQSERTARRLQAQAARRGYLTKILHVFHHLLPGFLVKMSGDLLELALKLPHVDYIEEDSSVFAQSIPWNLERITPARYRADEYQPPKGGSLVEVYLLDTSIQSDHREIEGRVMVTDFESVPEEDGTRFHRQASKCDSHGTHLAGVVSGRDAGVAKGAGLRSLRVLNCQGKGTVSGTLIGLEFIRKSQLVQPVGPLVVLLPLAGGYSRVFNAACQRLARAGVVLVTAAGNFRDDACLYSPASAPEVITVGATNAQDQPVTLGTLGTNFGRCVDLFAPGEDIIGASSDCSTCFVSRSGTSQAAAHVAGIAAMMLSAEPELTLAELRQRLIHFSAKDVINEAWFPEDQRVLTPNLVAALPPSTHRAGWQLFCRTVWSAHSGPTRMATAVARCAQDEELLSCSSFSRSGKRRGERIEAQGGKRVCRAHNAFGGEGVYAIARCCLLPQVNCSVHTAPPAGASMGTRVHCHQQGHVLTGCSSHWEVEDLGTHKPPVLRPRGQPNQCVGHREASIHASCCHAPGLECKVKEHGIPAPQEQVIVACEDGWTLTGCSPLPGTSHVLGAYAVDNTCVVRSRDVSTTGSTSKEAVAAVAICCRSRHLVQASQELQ

- OD450 nm [1]: 0.06 OD450 nm
- OD450 nm [2]: 0.07 OD450 nm
- OD450 nm [3]: 2.77 OD450 nm
- OD450 nm [4]: 2.97 OD450 nm
- OD450 nm [5]: 2.91 OD450 nm
- OD450 nm [6]: 3 OD450 nm
- OD450 nm [7]: 0.8 OD450 nm
- OD450 nm [8]: 2.97 OD450 nm
- OD450 nm [9]: 1.46 OD450 nm
- OD450 nm [10]: 3 OD450 nm
- OD450 nm [11]: 0.14 OD450 nm
- OD450 nm [12]: 0.24 OD450 nm
- OD450 nm [13]: 0.07 OD450 nm
- OD450 nm [14]: 0.08 OD450 nm
- OD450 nm [15]: 0.06 OD450 nm
- OD450 nm [16]: 0.11 OD450 nm
- Kd [17]: 12.1 nM
- koff [17]: 0.000643 s⁻¹
- kon [17]: 53100 M⁻¹ s⁻¹
- OD450 nm [18]: 2.38 OD450 nm
- OD450 nm [19]: 1.35 OD450 nm
- OD450 nm [20]: 2.19 OD450 nm
- OD450 nm [21]: 1.27 OD450 nm
- OD450 nm [22]: 2.26 OD450 nm
- OD450 nm [23]: 2.28 OD450 nm
- OD450 nm [24]: 2.31 OD450 nm
B1: 76A1B11, fully human anti-PCSK9 antibody (antibody, human IgG1, V domains shown)
VH: QVQLVESGGGVVQPGRSLRLSCAATGFTFSIYGMHWVRQAPGKGLEWVAVIWYDGSNKYYADSVKGRFIISRDNSKNTLYLQMNSLRVEDTAVYYCVSDYFGSGNSYYYYGMDVWGQGTTVTVSS
VL: DIQMTQSPSSLSASVGDRVTITCRASQVISNYLAWYQQKPGKVPKLLIYTASTLQSGVPSRFSGSGSGADFTLTISSLQPEDVATYYCQKYNSAPYTFGQGTKLEIK

- Kd [17]: 2.17 nM
- Kd [25]: 1.42 nM
B2: 103C11E8, fully human anti-PCSK9 antibody (antibody, human IgG1, V domains shown)
VH: QVQLQESGPGLVKPSGTLSLTCAVSGGSISSSNWWSWVRQPPGKGLEWIGEIYHSGSTNYNPSLKSRVTISVDKSKNQFSLKLSSVTAADTAVYYCARGIAVAGTDVMDAWGQGASVTVSS
VL: EIVLTQSPATLSLSPGERATLSCRASQSVSSYLVWYQQKSGQAPRLLIYGTSNRATGIPARFSGSGSGTDFTLTISSLEPEDFALYYCQQRGNWMYTFGQGTKLEIK
